Data on two substances can be found in PMC3479137.

The target of assay [1] is fHbp subfamily B (Neisseria meningitidis) (UniProt Q9JXV4). The conditions noted are these: cited from earlier work.
In assay [2] the target is fHbp subfamily A (Neisseria meningitidis) (UniProt Q9JXV4). The conditions noted are these: cited from earlier work.
The target of assay [3] is fHbp_10 (1.P10) with D184 replaced by K184 (Neisseria meningitidis). As to the kind of experiment: SPR; ProteOn XPR36 (BioRad); fHbp immobilized on a ProteOn GLM sensor chip; increasing concentrations of fH67 injected at 40 µl/min, dissociation 300 seconds; KD calculated with ProteOn manager software; average KD.
In assay [4] the target is fHbp_10 (1.P10), factor H binding protein with aspartic acid at position 184 (Neisseria meningitidis) (UniProt E6MV22). Described as above.
Sequence of fHbp_10 (1.P10), factor H binding protein with aspartic acid at position 184 (Neisseria meningitidis) (E6MV22 20-274): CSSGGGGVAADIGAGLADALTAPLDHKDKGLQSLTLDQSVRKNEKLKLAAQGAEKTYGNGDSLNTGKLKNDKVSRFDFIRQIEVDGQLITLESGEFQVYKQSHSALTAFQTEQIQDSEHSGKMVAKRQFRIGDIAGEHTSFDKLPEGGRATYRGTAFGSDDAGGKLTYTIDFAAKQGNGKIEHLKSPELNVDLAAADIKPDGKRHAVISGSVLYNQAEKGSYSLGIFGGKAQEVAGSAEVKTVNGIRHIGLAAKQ

Sequence of factor H (P08603 19-1231): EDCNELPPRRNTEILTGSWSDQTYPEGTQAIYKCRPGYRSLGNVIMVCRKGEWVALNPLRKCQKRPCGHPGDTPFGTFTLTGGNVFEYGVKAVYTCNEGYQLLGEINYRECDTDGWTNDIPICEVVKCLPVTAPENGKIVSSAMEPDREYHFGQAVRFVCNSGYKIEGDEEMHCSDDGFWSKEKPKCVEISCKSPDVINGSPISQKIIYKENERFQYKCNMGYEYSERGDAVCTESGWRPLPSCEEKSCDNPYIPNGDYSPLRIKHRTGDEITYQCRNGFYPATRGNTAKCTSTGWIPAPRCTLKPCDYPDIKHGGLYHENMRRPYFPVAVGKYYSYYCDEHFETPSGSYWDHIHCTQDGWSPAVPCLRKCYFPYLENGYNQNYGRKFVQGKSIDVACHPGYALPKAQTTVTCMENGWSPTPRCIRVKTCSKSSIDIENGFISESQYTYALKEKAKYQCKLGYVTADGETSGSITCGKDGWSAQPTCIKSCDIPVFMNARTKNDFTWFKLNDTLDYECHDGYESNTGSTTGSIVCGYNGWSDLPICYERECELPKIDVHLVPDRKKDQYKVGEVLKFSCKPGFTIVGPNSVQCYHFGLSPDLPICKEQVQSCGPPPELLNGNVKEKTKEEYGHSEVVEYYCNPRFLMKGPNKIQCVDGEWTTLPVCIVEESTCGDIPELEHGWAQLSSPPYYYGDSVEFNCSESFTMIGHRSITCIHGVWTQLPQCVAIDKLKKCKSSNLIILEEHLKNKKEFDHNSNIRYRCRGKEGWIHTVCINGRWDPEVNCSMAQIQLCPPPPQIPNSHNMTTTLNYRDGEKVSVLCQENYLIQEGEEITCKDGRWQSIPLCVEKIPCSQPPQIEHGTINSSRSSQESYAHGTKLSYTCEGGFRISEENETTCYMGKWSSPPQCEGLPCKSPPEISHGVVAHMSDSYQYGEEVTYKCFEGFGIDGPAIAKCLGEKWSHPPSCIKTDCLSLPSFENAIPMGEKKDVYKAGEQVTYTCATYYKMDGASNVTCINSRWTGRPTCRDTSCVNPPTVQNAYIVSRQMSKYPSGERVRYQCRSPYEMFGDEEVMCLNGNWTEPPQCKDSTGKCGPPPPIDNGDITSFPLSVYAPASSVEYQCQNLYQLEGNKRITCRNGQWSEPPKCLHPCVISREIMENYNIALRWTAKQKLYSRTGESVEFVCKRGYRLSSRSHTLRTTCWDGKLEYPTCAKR
Sequence of fHbp subfamily A (Neisseria meningitidis) (Q9JXV4 20-274): as the sequence (E6MV22 20-274) above
Sequence of fHbp subfamily B (Neisseria meningitidis) (Q9JXV4 20-274): as the sequence (E6MV22 20-274) above

In general, Kd refers to a measure of binding affinity in units of concentration. In the case of factor H (from UniProt P08603), the Kd in assay [1] was 153 nM; in assay [2] it was 29 nM.

Regarding “recombinant purified human fH (SCR67) (from UniProt P08603 19-1231) (domain or fragment)”, the Kd was 26 nM in assay [3] and 17.4 nM in assay [4].
